Key:
[1] = target: T1, TcdB from C. difficile ribotype 087 (Clostridium difficile ribotype 087 …, UniProt P18177 2-2366); experiment: sandwich ELISA (figure legend)
T1 construct: also called 087 TcdB; 10463 (087)

[2] = target: T2, TcdB from C. difficile ribotype 027 (Clostridium difficile ribotype 027 …, UniProt P18177 2-2366); experiment: ELISA, TcdB coated, quadrahead detected with rabbit polyclonal anti-ICVD
T2 construct: also called 027 TcdB; R20291 (027)

[3] = target: T2, TcdB from C. difficile ribotype 027; experiment: sandwich ELISA: TcdB coated, quadrahead, then TcdA, rabbit anti-TcdA pAb
[4] = target: T1, TcdB from C. difficile ribotype 087; experiment: as above

Binder	binding result [1]	binding result [2]	binding result [3]	binding result [4]
ID1C (bispecific antibody) DVQLQESGGGLVQAGGSLRLSCAASGATSDVYAIGWFRQVPGKEREFVATINRSGSDSYYADSVKGRFTISRDNAKNTVYLQMNSLKPEETAVYYCAASRSDCIGYGCRRVSQDYWGQGTQVTVSSGGGGSGGGGSGGGGSGGGGSDVQLQESGGGLVQAGGSLRLSCVISGMDFSHKPAGWFRQAPGKEREFVASITTRASTHYADSVKGRFTISRDNAKNTVYLEMNSLKPEDTAVYYCNSEYYWGQGTQVTVSSGGGGSGGGGSGGGGSGGGGSDVQLQESGGGLVQAGDSLRLSCAASGATLSSYTIGWFRQAPEKEREFVAGSSRDGRTNYYANSVKGRFTISRDNAKNTVYLQMNSLKPEDTAVYYCAAHTTSGVPVRERSYAYWGQGTQVTVSSGGGGSGGGGSGGGGSGGGGSDVQLQESGGGLVQAGGSLRLSCAASGATFSSYYIGWFRQAPGKEREFVAAINGSGGNRISADSVKGRFTISRDNAKNTVYLQLNSLKPEDTAVYYCAASLTYYGRSARYDYWGQGTQVTVSS	binds	binds	–	–
ID3C (bispecific antibody) DVQLQESGGGLVQAGDSLRLSCAASGATLSSYTIGWFRQAPEKEREFVAGSSRDGRTNYYANSVKGRFTISRDNAKNTVYLQMNSLKPEDTAVYYCAAHTTSGVPVRERSYAYWGQGTQVTVSSGGGGSGGGGSGGGGSGGGGSDVQLQESGGGLVQAGGSLRLSCAASGATSDVYAIGWFRQVPGKEREFVATINRSGSDSYYADSVKGRFTISRDNAKNTVYLQMNSLKPEETAVYYCAASRSDCIGYGCRRVSQDYWGQGTQVTVSSGGGGSGGGGSGGGGSGGGGSDVQLQESGGGLVQAGGSLRLSCVISGMDFSHKPAGWFRQAPGKEREFVASITTRASTHYADSVKGRFTISRDNAKNTVYLEMNSLKPEDTAVYYCNSEYYWGQGTQVTVSSGGGGSGGGGSGGGGSGGGGSDVQLQESGGGLVQAGGSLRLSCAASGATFSSYYIGWFRQAPGKEREFVAAINGSGGNRISADSVKGRFTISRDNAKNTVYLQLNSLKPEDTAVYYCAASLTYYGRSARYDYWGQGTQVTVSS	–	–	binds	binds

— patent publication US20180100008A1 (VHSQUARED, published 2018)
